{"source": "patent US20030125231", "tested_on": "Histone III (type ss from calf thymus)"}
{"substance": "His-tagged Pim-2 (purified recombinant human Pim-2, expressed in E. coli)", "values": [{"measurement": "Incorporation of 33P into Histone (in vitro kinase assay, 15, 30 and 60 min)", "result": "purified recombinant Pim-2 is active in phosphorylating Histone"}]}
